Results from patent US20210054095A1 (PHILOGEN S P A, published 2021).
Substitutions are numbered along the chain they refer to. Values belong to the binder of their own block, whether it stands above or below them.

Tests used:
[1] = molecular target: CAIX coated on a CM5 chip (Example 2) (human, UniProt Q16790 38-414); test: SPR (BIAcore X100), CAIX coated CM5 chip, scFv injected as serial dilutions
Experimental: Affinity measurements were performed by surface plasmon resonance using BIAcore X100 instrument using a CAIX coated CM5 chip. The XE114 antibody without glycosylation motif in scFv format was injected as serial-dilutions, in a concentration range from […] to 15.7 nM. Regeneration of the chip was performed by HCl 10 mM.
The BIAcore analysis confirmed that the XE114 antibody without glycosylation motif in scFv format was capable of binding to CAIX.

[2] = molecular target: recombinant His-tagged CAIX (amino acids 120-397 of the full-length protein; SEQ ID NO: 15) (human, UniProt Q16790 120-397); test: SPR (Biacore 3000), His-tagged CAIX on CM5 chip, monomeric scFv injected at 660 nM
Experimental: Affinity measurements were performed on a Biacore 3000 instrument. 2100 RU recombinant His-tagged CAIX (SEQ ID NO: 15) were immobilized onto a CM5 chip. Peaks representing the monomeric fractions of the scFv were collected by size-exclusion chromatography on a Superdex 75 HR 10/30 column. The monomeric fraction was injected at a flow rate of 10 μl min⁻¹ over the antigen-coated chip at […] different concentrations, 660 nM, 160 nM and 80 nM. All kinetic data were evaluated using the BIAevaluation 4.1 software.

[3] = molecular target: carbonic anhydrase IX (CAIX) as expressed on SKRC52 human renal cell carcinoma cells, SKRC52 tumour sections … (human, UniProt Q16790 38-459); test: immunofluorescence on frozen human stomach sections, FITC-labelled hIgG1 at 2 ug/ml
Experimental: Frozen sections of healthy human stomach tissue were stained as follows. Briefly, FITC-labeled antibody XE114 in human IgG1 (hIgG1) format was added at a final concentration of 2 μg/ml to acetone-fixed sections.
Counterstaining for cell nuclei was performed with DAPI. Tissue sections were mounted with fluorescent mounting medium and analysed using an Axioskop2 microscope with a 10× objective.

- Kd [1]: 2.71 nM
- koff [1]: 0.000305 s⁻¹
B1: XE114 antibody without glycosylation motif in scFv format (scFv)
scFv: EVQLLESGGGLVQPGGSLRLSCAASGFTFSSYAMSWVRQAPGKGLEWVSAIDGSGGSTYYADSVKGRFTISRDNSKNTLYLQMNSLRAEDTAVYYCVKGPPVFDYWGQGTLVTVSSGGGGSGGGGSGGGGSSELTQDPAVSVALGQTVRITCQGDSLRSYYASWYQQKPGQAPVLVIYGKNNRPSGIPDRFSGSSSGNTASLTITGAQAEDEADYYCQSSKWSWDPVVFGGGTKLTVLG
notes: Expressed in CHO-S cells; also called XE114 w/o glycosylation motif

- Kd [2]: 15 nM
B2: anti-CAIX XE114 scFv antibody (with the glycosylation motif) (scFv)
scFv: B1 scFv with Q218N
notes: also called scFv XE114; XE114 single chain Fv

- binding result [3]: binds
B3: XE114 antibody (with the glycosylation motif) in human IgG1 (hIgG1) format (antibody, V domains shown)
VH: EVQLLESGGGLVQPGGSLRLSCAASGFTFSSYAMSWVRQAPGKGLEWVSAIDGSGGSTYYADSVKGRFTISRDNSKNTLYLQMNSLRAEDTAVYYCVKGPPVFDYWGQGTLVTVSS
VL: SSELTQDPAVSVALGQTVRITCQGDSLRSYYASWYQQKPGQAPVLVIYGKNNRPSGIPDRFSGSSSGNTASLTITGAQAEDEADYYCNSSKWSWDPVVFGGGTKLTVLG
modifications: FITC-labelled (site and chain not stated)
notes: also called FITC-labeled antibody XE114; XE114 in IgG format
